{"source": "patent US20080249606", "key": {"[1]": {"biological_target": "endostatin, a recombinantly produced fragment of human collagen XVIII (EntreMed), P39060"}, "[2]": {"biological_target": "BSA exposed to Ellagic acid, P02769", "sequence (P02769 25-607)": "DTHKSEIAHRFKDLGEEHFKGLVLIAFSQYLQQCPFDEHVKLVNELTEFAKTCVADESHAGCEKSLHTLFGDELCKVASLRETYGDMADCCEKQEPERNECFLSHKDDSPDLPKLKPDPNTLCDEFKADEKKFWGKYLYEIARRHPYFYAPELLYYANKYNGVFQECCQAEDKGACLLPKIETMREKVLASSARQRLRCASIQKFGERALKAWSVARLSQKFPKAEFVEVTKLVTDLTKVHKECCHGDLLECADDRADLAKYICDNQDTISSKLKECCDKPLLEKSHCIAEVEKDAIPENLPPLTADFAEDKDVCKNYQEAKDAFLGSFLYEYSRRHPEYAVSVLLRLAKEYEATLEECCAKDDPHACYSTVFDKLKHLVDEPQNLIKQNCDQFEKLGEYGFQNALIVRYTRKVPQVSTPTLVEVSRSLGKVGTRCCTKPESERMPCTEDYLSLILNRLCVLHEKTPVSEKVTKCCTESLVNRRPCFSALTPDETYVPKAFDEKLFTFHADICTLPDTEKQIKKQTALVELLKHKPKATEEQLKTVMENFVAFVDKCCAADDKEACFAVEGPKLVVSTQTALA"}, "[3]": {"biological_target": "BSA exposed to kaolin, P02769", "sequence (P02769 25-607)": "as above"}, "[4]": {"biological_target": "glycated haemoglobin (Hb-AGE), P69905", "sequence (P69905 2-142, chain 1 of 2)": "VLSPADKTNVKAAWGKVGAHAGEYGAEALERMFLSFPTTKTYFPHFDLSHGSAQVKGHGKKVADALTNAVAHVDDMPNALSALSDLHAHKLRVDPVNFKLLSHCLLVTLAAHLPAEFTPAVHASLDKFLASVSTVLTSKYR", "sequence (chain, as listed by the source, chain 2 of 2)": "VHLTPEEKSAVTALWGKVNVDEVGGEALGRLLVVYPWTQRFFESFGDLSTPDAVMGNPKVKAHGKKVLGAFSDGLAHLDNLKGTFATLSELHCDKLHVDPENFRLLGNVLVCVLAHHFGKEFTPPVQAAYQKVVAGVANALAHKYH"}, "[5]": {"biological_target": "Gelofusin mixed with kaolin"}, "[6]": {"biological_target": "Bovine serum albumin (BSA), P02769", "sequence (P02769 25-607)": "as the sequence (P02769 25-607) above"}, "[7]": {"biological_target": "endostatin incubated overnight with DXS500k, P39060"}, "[8]": {"biological_target": "endostatin exposed to kaolin, P39060"}, "[9]": {"biological_target": "T1, endostatin exposed to Ellagic acid, P39060", "T1 chain": "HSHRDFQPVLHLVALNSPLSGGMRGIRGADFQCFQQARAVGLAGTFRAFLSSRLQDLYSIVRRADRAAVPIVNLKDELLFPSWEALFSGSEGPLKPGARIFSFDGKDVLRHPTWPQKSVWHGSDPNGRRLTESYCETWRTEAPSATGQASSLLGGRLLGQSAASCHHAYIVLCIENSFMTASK"}, "[10]": {"biological_target": "Gelofusin (Braun Melsungen AG)"}, "[11]": {"biological_target": "BSA incubated overnight with dextran sulphate 500,000 Da (DXS500k), P02769", "sequence (P02769 25-607)": "as the sequence (P02769 25-607) above"}, "[12]": {"biological_target": "Gelofusin mixed with lipopolysaccharide (LPS)"}, "[13]": {"biological_target": "lysozyme exposed to Microlance-3 injection needles, P00698", "sequence (P00698 19-147)": "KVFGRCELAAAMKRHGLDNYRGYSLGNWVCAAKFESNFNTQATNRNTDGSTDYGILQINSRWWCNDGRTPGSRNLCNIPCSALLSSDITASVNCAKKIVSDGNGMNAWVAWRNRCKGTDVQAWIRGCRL"}}}
{"protein": "factor XII (FXII, Calbiochem 233490) (protein) IPPWEAPKEHKYKAEEHTVVLTVTGEPCHFPFQYHRQLYHKCTHKGRPGPQPWCATTPNFDQDQRWGYCLEPKKVKDHCSKHSPCQKGGTCVNMPSGPHCLCPQHLTGNHCQKEKCFEPQLLRFFHKNEIWYRTEQAAVARCQCKGPDAHCQRLASQACRTNPCLHGGRCLEVEGHRLCHCPVGYTGAFCDVDTKASCYDGRGLSYRGLARTTLSGAPCQPWASEATYRNVTAEQARNWGLGGHAFCRNPDNDIRPWCFVLNRDRLSWEYCDLAQCQTPTQAAPPTPVSPRLHVPLMPAQPAPPKPQPTTRTPPQSQTPGALPAKREQPPSLTRNGPLSCGQRLRKSLSSMTRVVGGLVALRGAHPYIAALYWGHSFCAGSLIAPCWVLTAAHCLQDRPAPEDLTVVLGQERRNHSCEPCQTLAVRSYRLHEAFSPVSYQHDLALLRLQEDADGSCALLSPYVQPVCLPSGAARPSETTLCQVAGWGHQFEGAEEYASFLQEAQVPFLSLERCSAPDVHGSSILPGMLCAGFLEGGTDACQGDSGGPLVCEDQAAERRLTLQGIISWGSGCGDRNKPGVYTDVAYYLAWIREHTVS", "values": [{"measurement": "FXII activation (conversion of Chromozym-PK by kallikrein)", "setting": "[1]", "value": "Neither BSA or endostatin alone, nor kaolin or DXS500k alone are efficient activators of FXII"}, {"measurement": "chromogenic factor XII/prekallikrein activation assay", "setting": "[2]", "value": "exposure of the proteins to the polyphenol surface induces increased capacity to activate factor XII/prekallikrein"}, {"measurement": "FXII activation (conversion of Chromozym-PK by kallikrein)", "setting": "[3]", "value": "combinations of surface and protein cofactor results in FXII and subsequent prekallikrein activity"}, {"measurement": "FXII activation", "setting": "[4]", "value": "Presence of cross-β structure conformation in Hb-AGE was conformed by tPA binding, tPA activation, FXII activation"}, {"measurement": "chromogenic factor XII/prekallikrein activation assay with active enzyme kallikrein read-out", "setting": "[5]", "value": "enhanced activity is seen when Gelofusin is mixed with kaolin or LPS"}, {"measurement": "FXII activation (conversion of Chromozym-PK by kallikrein)", "setting": "[6]", "value": "Neither BSA or endostatin alone, nor kaolin or DXS500k alone are efficient activators of FXII"}, {"measurement": "FXII activation (conversion of Chromozym-PK by kallikrein)", "setting": "[7]", "value": "combinations of surface and protein cofactor results in FXII and subsequent prekallikrein activity"}, {"measurement": "FXII activation (conversion of Chromozym-PK by kallikrein)", "setting": "[8]", "value": "combinations of surface and protein cofactor results in FXII and subsequent prekallikrein activity"}, {"measurement": "chromogenic factor XII/prekallikrein activation assay", "setting": "[9]", "value": "exposure of the proteins to the polyphenol surface induces increased capacity to activate factor XII/prekallikrein"}, {"measurement": "chromogenic factor XII/prekallikrein activation assay with active enzyme kallikrein read-out", "setting": "[10]", "value": "Gelofusin alone does not stimulate factor XII/prekalikrein activation"}, {"measurement": "FXII activation (conversion of Chromozym-PK by kallikrein)", "setting": "[11]", "value": "combinations of surface and protein cofactor results in FXII and subsequent prekallikrein activity"}, {"measurement": "chromogenic factor XII/prekallikrein activation assay with active enzyme kallikrein read-out", "setting": "[12]", "value": "enhanced activity is seen when Gelofusin is mixed with kaolin or LPS"}]}
{"protein": "tissue-type plasminogen activator (tPA, Actilyse, Boehringer-Ingelheim) (protein) SYQVICRDEKTQMIYQQHQSWLRPVLRSNRVEYCWCNSGRAQCHSVPVKSCSEPRCFNGGTCQQALYFSDFVCQCPEGFAGKCCEIDTRATCYEDQGISYRGTWSTAESGAECTNWNSSALAQKPYSGRRPDAIRLGLGNHNYCRNPDRDSKPWCYVFKAGKYSSEFCSTPACSEGNSDCYFGNGSAYRGTHSLTESGASCLPWNSMILIGKVYTAQNPSAQALGLGKHNYCRNPDGDAKPWCHVLKNRRLTWEYCDVPSCSTCGLRQYSQPQFRIKGGLFADIASHPWQAAIFAKHRRSPGERFLCGGILISSCWILSAAHCFQERFPPHHLTVILGRTYRVVPGEEEQKFEVEKYIVHKEFDDDTYDNDIALLQLKSDSSRCAQESSVVRTVCLPPADLQLPDWTECELSGYGKHEALSPFYSERLKEAHVRLYPSSRCTSQHLLNRTVTDNMLCAGDTRSGGPQANLHDACQGDSGGPLVCLNDGRMTLVGIISWGLGCGQKDVPGVYTKVTNYLDWIRDNMRP", "values": [{"measurement": "Plg-activation assay (plasmin substrate S-2251)", "setting": "[13]", "value": "When the plasma protein lysozyme is exposed to the stainless steel of a Microlance-3 injection needle, tPA activating properties are induced"}]}
